The values that follow come from patent publication US20110118172A1 (Takeda / Millennium, published 2011).

The chains are these.
B1: Compound No. 977: des(1-2)-[Hyp3,Thr5,AzaGly7,Arg(Me)9,Trp10]MS10 (peptide)
peptide: [Hyp]NTF[azaGly]L[Arg(Me)]W-NH2
modifications: N-terminus assumed
SMILES: CNC(=N)NCCC[C@H](NC(=O)[C@H](CC(C)C)NC(=O)NNC(=O)[C@H](Cc1ccccc1)NC(=O)[C@@H](NC(=O)[C@H](CC(N)=O)NC(=O)[C@@H]1C[C@@H](O)CN1)[C@@H](C)O)C(=O)N[C@@H](Cc1c[nH]c2ccccc12)C(N)=O
B2: Compound No. 965: des(1)-decanoyl[D-Tyr2,Hyp3,Thr5,AzaGly7,Arg(Me)9,Trp10]MS10 (peptide)
peptide: Decanoyl-[dY][Hyp]NTF[azaGly]L[Arg(Me)]W-NH2
SMILES: CCCCCCCCCC(=O)N[C@H](Cc1ccc(O)cc1)C(=O)N1C[C@H](O)C[C@H]1C(=O)N[C@@H](CC(N)=O)C(=O)N[C@H](C(=O)N[C@@H](Cc1ccccc1)C(=O)NNC(=O)N[C@@H](CC(C)C)C(=O)N[C@@H](CCCNC(=N)NC)C(=O)N[C@@H](Cc1c[nH]c2ccccc12)C(N)=O)[C@@H](C)O
B3: Compound No. 971: des(1)-Amidino-[D-Tyr2,Hyp3,Thr5,AzaGly7,Arg(Me)9,Trp10]MS10 (peptide)
peptide: amidino-[dY][Hyp]NTF[azaGly]L[Arg(Me)]W-NH2
SMILES: CNC(=N)NCCC[C@H](NC(=O)[C@H](CC(C)C)NC(=O)NNC(=O)[C@H](Cc1ccccc1)NC(=O)[C@@H](NC(=O)[C@H](CC(N)=O)NC(=O)[C@@H]1C[C@@H](O)CN1C(=O)[C@@H](Cc1ccc(O)cc1)NC(=N)N)[C@@H](C)O)C(=O)N[C@@H](Cc1c[nH]c2ccccc12)C(N)=O
B4: Compound No. 967: des(1)-Ureido-[D-Tyr2,Hyp3,Thr5,AzaGly7,Arg(Me)9,Trp10]MS10 (peptide)
peptide: Carbamoyl-[dY][Hyp]NTF[azaGly]L[Arg(Me)]W-NH2
SMILES: CNC(=N)NCCC[C@H](NC(=O)[C@H](CC(C)C)NC(=O)NNC(=O)[C@H](Cc1ccccc1)NC(=O)[C@@H](NC(=O)[C@H](CC(N)=O)NC(=O)[C@@H]1C[C@@H](O)CN1C(=O)[C@@H](Cc1ccc(O)cc1)NC(N)=O)[C@@H](C)O)C(=O)N[C@@H](Cc1c[nH]c2ccccc12)C(N)=O
B5: Compound No. 966: des(1)-Benzylureido-[D-Tyr2,Hyp3,Thr5,AzaGly7,Arg(Me)9,Trp10]MS10 (peptide)
peptide: benzylureido-[dY][Hyp]NTF[azaGly]L[Arg(Me)]W-NH2
SMILES: CNC(=N)NCCC[C@H](NC(=O)[C@H](CC(C)C)NC(=O)NNC(=O)[C@H](Cc1ccccc1)NC(=O)[C@@H](NC(=O)[C@H](CC(N)=O)NC(=O)[C@@H]1C[C@@H](O)CN1C(=O)[C@@H](Cc1ccc(O)cc1)NC(=O)NCc1ccccc1)[C@@H](C)O)C(=O)N[C@@H](Cc1c[nH]c2ccccc12)C(N)=O
B6: Compound No. 963: des(1)-Ms-[D-Tyr2,Hyp3,Thr5,AzaGly7,Arg(Me)9,Trp10]MS10 (peptide)
peptide: Ms-[dY][Hyp]NTF[azaGly]L[Arg(Me)]W-NH2
SMILES: CNC(=N)NCCC[C@H](NC(=O)[C@H](CC(C)C)NC(=O)NNC(=O)[C@H](Cc1ccccc1)NC(=O)[C@@H](NC(=O)[C@H](CC(N)=O)NC(=O)[C@@H]1C[C@@H](O)CN1C(=O)[C@@H](Cc1ccc(O)cc1)NS(C)(=O)=O)[C@@H](C)O)C(=O)N[C@@H](Cc1c[nH]c2ccccc12)C(N)=O

Non-standard residues stand in square brackets, D forms with d. No end group written: not given here. *: point of attachment. benzylureido = benzylcarbamoyl on the N-terminal amino group, O=C(NCc1ccccc1)*; amidino = amidino group on the N-terminal amino group, N=C(N)*; Pro(trans-4-F) = O=C(O)[C@@H]1C[C@@H](F)CN1; Arg(Me) = CNC(=N)NCCC[C@H](N)C(=O)O; Dap(CONH2) = NC(=O)NC[C@H](N)C(=O)O; Hyp = O=C(O)[C@@H]1C[C@@H](O)CN1; Cha = N[C@@H](CC1CCCCC1)C(=O)O; dCha = N[C@H](CC1CCCCC1)C(=O)O; Decanoyl = CCCCCCCCCC(=O)*; Carbamoyl = NC(=O)*; azaGly = NNC(=O)O; Ms = CS(=O)(=O)*

The target in the assay is metastin receptor (OT7T175) stably expressed on CHO cells. The experiment in a line: cell-based or functional assay.
Take Ac-[dY][Pro(trans-4-F)]NT[Cha][azaGly]L[Arg(Me)]W-NH2 [Compound No. 970: des(1)-Ac-[D-Tyr2,Pro(4F)3,Thr5,Cha6,AzaGly7,Arg(Me)9,Trp10]MS10]: the “Specific Activity: EC50 of the test compound based on EC50 of Metastin (45-54); agonist activity by change in intracellular calcium ion level (Fluo-4 NW, FLIPR) in receptor-expressing CHO cells” value is 0.6 ratio. For B1 the value was 1.7 ratio; for Ac-[dY][Hyp][Dap(CONH2)]T[Cha]G[dL][Arg(Me)]W-NH2 (also: Gly7-D-Leu8 -CONH- replaced by (E)-CH=CH-) [Compound No. 976: des(1)-Ac-[D-Tyr2,Hyp3,Alb4,Thr5,Cha6,Gly7ψ((E)CH=CH)D-Leu8,Arg(Me)9,Trp10]MS10], 1 ratio; for B2, 4.1 ratio. For Ac-[dY][Hyp][Dap(CONH2)]T[Cha]GL[Arg(Me)]W-NH2 (also: Gly7-Leu8 -CONH- replaced by (E)-CMe=CH-) [Compound No. 986: des(1)-Ac-[D-Tyr2,Hyp3,Alb4,Thr5,Cha6,Gly7ψ((E)CMe=CH)Leu8,Arg(Me)9,Trp10]MS10] the value was 0.3 ratio; for Ac-[dY][Hyp]NT[Cha][azaGly]L[Arg(Me)]W-NH2 [Compound No. 969: des(1)-Ac-[D-Tyr2,Hyp3,Thr5,Cha6,AzaGly7,Arg(Me)9,Trp10]MS10], 0.3 ratio; for B3, 0.4 ratio. For B4 the value was 0.6 ratio; for Ac-[dY][Hyp][Dap(CONH2)]T[dCha]GL[Arg(Me)]W-NH2 (also: Gly7-Leu8 -CONH- replaced by (E)-CH=CH-) [Compound No. 975: des(1)-Ac-[D-Tyr2,Hyp3,Alb4,Thr5,D-Cha6,Gly7ψ((E)CH=CH)Leu8,Arg(Me)9,Trp10]MS10], 2.3 ratio; for B5, 1.9 ratio. Take B6: the “Specific Activity: EC50 of the test compound based on EC50 of Metastin (45-54); agonist activity by change in intracellular calcium ion level (Fluo-4 NW, FLIPR) in receptor-expressing CHO cells” value came out at 0.9 ratio.
